Assay results: publication doi:10.1101/2023.02.24.529952 (bioRxiv, 2023)

B1: HCoV-OC43 Nucleocapsid (N) protein (2X-StrepTag tagged) (natural protein)
chain: MSFTPGKQSSSRASSGNRSGNGILKWADQSDQVRNVQTRGRRAQPKQTATSQQPSGGNVVPYYSWFSGITQFQKGKEFEFVEGQGPPIAPGVPATEAKGYWYRHNRGSFKTADGNQRQLLPRWYFYYLGTGPHAKDQYGTDIDGVYWVASNQADVNTPADIVDRDPSSDEAIPTRFPPGTVLPQGYYIEGSGRSAPNSRSTSRTSSRASSAGSRSRANSGNRTPTSGVTPDMADQIASLVLAKLGKDATKPQQVTKHTAKEVRQKILNKPRQKRSPNKQCTVQQCFGKRGPNQNFGGGEMLKLGTSDPQFPILAELAPTAGAFFFGSRLELAKVQNLSGNPDEPQKDVYELRYNGAIRFDSTLSGFETIMKVLNENLNAYQQQDGMMNMSPKPQRQRGHKNGQGENDNISVAVPKSRVQQNKSRELTAEDISLLKKMDEPYTEDTSEI
notes: also called rN; HCoV-OC43 rN; source: HEK293-FT, transfected, in crude lysate; not shown: 2X-StrepTag, C-terminal, kept
B2: CCL5 (ligand)
chain: SPYSSDTTPCCFAYIARPLPRAHIKEYFYTSGKCSNPAVVFVTRKNRQVCANPEKKWVREYINSLEMS
notes: recombinant human CCL5; source: bought: PeproTech
B3: CCL11 (ligand)
chain: not shown
notes: recombinant human CCL11; source: bought: PeproTech
B4: CCL13 (ligand)
chain: not shown
notes: recombinant human CCL13; source: bought: PeproTech
B5: CCL21 (ligand)
chain: SDGGAQDCCLKYSQRKIPAKVVRSYRKQEPSLGCSIPAILFLPRKRSQAELCADPKELWVQQLMQHLDKTPSPQKPAQGCRKDRGASKTGKKGKGSKGCKRTERSQTPKGP
notes: recombinant human CCL21; source: bought: PeproTech
B6: CCL25 (ligand)
chain: QGVFEDCCLAYHYPIGWAVLRRAWTYRIQEVSGSCNLPAAIFYLPKRHRKVCGNPKSREVQRAMKLLDARNKVFAKLHHNTQTFQAGPHAVKKLSSGNSKLSSSKFSNPISSSKRNVSLLISANSGL
notes: recombinant human CCL25; source: bought: PeproTech
B7: CCL26 (ligand)
chain: TRGSDISKTCCFQYSHKPLPWTWVRSYEFTSNSCSQRAVIFTTKRGKKVCTHPRKKWVQKYISLLKTPKQL
notes: recombinant human CCL26; source: bought: PeproTech
B8: CCL28 (ligand)
chain: SEAILPIASSCCTEVSHHISRRLLERVNMCRIQRADGDCDLAAVILHVKRRRICVSPHNHTVKQWMKVQAAKKNGKGNVCHRKKHHGKRNSNRAHQGKHETYGHKTPY
notes: recombinant human CCL28; source: bought: PeproTech
B9: CXCL9 (ligand)
chain: TPVVRKGRCSCISTNQGTIHLQSLKDLKQFAPSPSCEKIEIIATLKNGVQTCLNPDSADVKELIKKWEKQVSQKKKQKNGKKHQKKKVLKVRKSQRSRQKKTT
notes: recombinant human CXCL9; source: bought: PeproTech
B10: CXCL11 (ligand)
chain: FPMFKRGRCLCIGPGVKAVKVADIEKASIMYPSNNCDKIEVIITLKENKGQRCLNPKSKQARLIIKKVERKNF
notes: recombinant human CXCL11; source: bought: PeproTech
B11: CXCL13 (ligand)
chain: VLEVYYTSLRCRCVQESSVFIPRRFIDRIQILPRGNGCPRKEIIVWKKNKSIVCVDPQAEWIQRMMEVLRKRSSSTLPVPVFKRKIP
notes: recombinant human CXCL13; source: bought: PeproTech
B12: CXCL14 (ligand)
chain: SKCKCSRKGPKIRYSDVKKLEMKPKYPHCEEKMVIITTKSVSRYRGQEHCLHPKLQSTKRFIKWYNAWNEKRRVYEE
notes: recombinant human CXCL14; source: bought: PeproTech
B13: IL-27 (complex)
chain 1: FPRPPGRPQLSLQELRREFTVSLHLARKLLSEVRGQAHRFAESHLPGVNLYLLPLGEQLPDVSLTFQAWRRLSDPERLCFISTTLQPFHALLGGLGTQGRWTNMERMQLWAMRLDLRDLQRHLRFQVLAAGFNLPEEEEEEEEEEEEERKGLLPGALGSALQGPAQVSWPQLLSTYRLLHSLELVLSRAVRELLLLSKAGHSVWPLGFPTLSPQP
chain 2: RKGPPAALTLPRVQCRASRYPIAVDCSWTLPPAPNSTSPVSFIATYRLGMAARGHSWPCLQQTPTSTSCTITDVQLFSMAPYVLNVTAVHPWGSSSSFVPFITEHIIKPDPPEGVRLSPLAERQLQVQWEPPGSWPFPEIFSLKYWIRYKRQGAARFHRVGPIEATSFILRAVRPRARYYVQVAAQDLTDYGELSDWSLPATATMSLGK
notes: source: bought: PeproTech

Target: T1, CXCL12α (human, UniProt P48061-2 22-89)
T1 construct: source: bought: PeproTech
Experiment: BLI
Details: one partner purified

T1 sequence (P48061 22-89): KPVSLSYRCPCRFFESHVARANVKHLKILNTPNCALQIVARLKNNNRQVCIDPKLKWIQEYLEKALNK

Binder | Kd [nM] | koff [s⁻¹] | kon [M⁻¹ s⁻¹]
B1 | 0.46 | 3.7e-05 | 62000

Target: B1
Experiment: BLI
Details: one partner purified

Binder | Kd [nM] | koff [s⁻¹] | kon [M⁻¹ s⁻¹]
B2 | 56000 | 0.015 | 2100
B3 | 1400 | 0.021 | 17000
B4 | 1600 | 0.025 | 19000
B5 | 290 | 0.012 | 67000
B6 | 610 | 0.0048 | 8300
B7 | 620 | 0.014 | 20000
B8 | 27 | 0.0015 | 60000
B9 | 29 | 0.0022 | 82000
B10 | 730 | 0.012 | 18000
B11 | 140 | 0.0046 | 44000
B12 | 580 | 0.0063 | 12000
B13 | 55 | 0.0024 | 51000
